Measurements: patent publication US20160158369A1, “PHARMACEUTICAL COMPOSITION FOR RESPIRATORY ADMINISTRATION” (SEIKAGAKU CORPORATION, priority 2013, published 2016)
“And” between values parts separate entries of the source, which are not always exact repeats. Identical values can stand only once.

Assay: Drug dissociation test: polysaccharide derivative in buffer solution, 36°C, 1 week, HPLC
Assay type: physicochemical
Experimental: In the examples relating to drug dissociation test, the drug dissociation ratio was evaluated as described below.
Sodium dihydrogen phosphate dihydrate (780 mg (5.0 mmol)) was dissolved in 500 mL of distilled water to give a liquid A. Separately, disodium hydrogen phosphate dodecahydrate (1.79 g (5.0 mmol)) was dissolved in 500 mL of distilled water to give a liquid B. By mixing the liquid A and liquid B at ratio of 2:3, a phosphate buffer solution of pH 7.5 was prepared.
0.62 g (10 mmol) of boric acid and 0.75 g (10 mmol) of potassium chloride were weighed and dissolved in 500 mL of distilled water to give a liquid C. Separately, by diluting 0.1 N sodium hydroxide solution with distilled water (×10 dilution), a liquid D was prepared.
50 mL of the liquid C and 7 mL of the liquid D were added to a 100 mL mess flask, and according to dilution to 100 mL with distilled water, a borate buffer solution of pH 8.0 was prepared. Furthermore, 50 mL of the liquid C and 40 mL of the liquid D were added to a 100 mL mess flask, and according to mess-up to 100 mL with distilled water, a borate buffer solution of pH 9.0 was prepared.
Each polysaccharide derivative obtained from above was dissolved in a buffer solution at each pH so as to have a concentration of 5 mg/10 mL, and heated for 1 week in an incubator at 36° C. Then, the drug dissociation ratio during the incubation was evaluated every 24 hours by liquid chromatography (HPLC).
The evaluation was performed by measuring the ratio between the drug amount remained in a polysaccharide derivative and the dissociated drug amount according to use of a size exclusion chromatography column (manufactured by TOSOH, TSKgel α-6000, 7.8 mmI.D.×30 cm).
Detailed conditions for the liquid chromatography are as follows.
Analysis time: 40 minutes
Solution for elution: acetonitrile (for HPLC):physiological saline=1:2
Detector: UV detector (240 nm)

| Substance | Dissociation ratio (%/day) (pH 7.4, 36°C) | Dissociation ratio (%/day) (pH 8.0, 36°C) | drug dissociation ratio (pH 8.0, 36°C, day 0) [%] | drug dissociation ratio (pH 8.0, 36°C, day 1) [%] | drug dissociation ratio (pH 8.0, 36°C, day 2) [%] | drug dissociation ratio (pH 8.0, 36°C, day 3) [%] | drug dissociation ratio (pH 8.0, 36°C, day 4) [%] | drug dissociation ratio (pH 8.0, 36°C, day 5) [%] | drug dissociation ratio (pH 8.0, 36°C, day 6) [%] | drug dissociation ratio (pH 8.0, 36°C, day 7) [%] | drug dissociation ratio (pH 7.4, 36°C, day 0) [%] | drug dissociation ratio (pH 7.4, 36°C, day 1) [%] | drug dissociation ratio (pH 7.4, 36°C, day 2) [%] | drug dissociation ratio (pH 7.4, 36°C, day 3) [%] | drug dissociation ratio (pH 7.4, 36°C, day 4) [%] | drug dissociation ratio (pH 7.4, 36°C, day 5) [%] | drug dissociation ratio (pH 7.4, 36°C, day 6) [%] | drug dissociation ratio (pH 7.4, 36°C, day 7) [%] | also measured |
| --- | --- | --- | --- | --- | --- | --- | --- | --- | --- | --- | --- | --- | --- | --- | --- | --- | --- | --- | --- |
| Carboxymethyl Cellulose (500) Introduced with 21-β-Alanyl-Budesonide [Compound xxa] | 2.8 %/day and 2.6 %/day | 5.7 %/day and 5.5 %/day | 2.7 | 9.9 | 16.4 | 22.1 | 27.1 | 31.7 | 35.9 | 39.6 |  |  |  |  |  |  |  |  | Dissociation ratio (%/day) (pH 7.5, 36°C): 2.8 %/day; drug dissociation ratio (pH 7.5, 36°C, day 0): 2.0%; drug dissociation ratio (pH 7.5, 36°C, day 1): 4.8%; drug dissociation ratio (pH 7.5, 36°C, day 2): 7.4%; drug dissociation ratio (pH 7.5, 36°C, day 3): 10.0%; drug dissociation ratio (pH 7.5, 36°C, day 4): 12.6%; drug dissociation ratio (pH 7.5, 36°C, day 5): 15.0%; drug dissociation ratio (pH 7.5, 36°C, day 6): 17.4%; drug dissociation ratio (pH 7.5, 36°C, day 7): 19.8% |
| Chondroitin Sulfate Introduced with 11-(2-Fluoro-β-Alanyl)-Propionic Acid Fluticasone [Compound viii] | 3.1 %/day | 10.1 %/day | 0.3 | 14.8 | 26.3 | 27.1 | 29.8 | 64.5 | 47.4 | 70.9 | 0.1 | 7.9 | 4.9 | 12.7 | 8.4 | 15.2 | 14.3 | 21.8 |  |
| Chondroitin Sulfate Introduced with 11-Glycyl-Propionic Acid Fluticasone [Compound xvii] |  |  |  |  |  |  |  |  |  |  |  |  |  |  |  |  |  |  | Dissociation ratio (%/day) (pH 7.4, phosphate buffer solution/acetonitrile (1:1), 36°C): 0.4 %/day; drug dissociation ratio (pH 7.4, phosphate buffer solution/acetonitrile (1:1), 36°C, day 0): 0.0%; drug dissociation ratio (pH 7.4, phosphate buffer solution/acetonitrile (1:1), 36°C, day 1): 0.3%; drug dissociation ratio (pH 7.4, phosphate buffer solution/acetonitrile (1:1), 36°C, day 2): 0.7%; drug dissociation ratio (pH 7.4, phosphate buffer solution/acetonitrile (1:1), 36°C, day 3): 1.3%; drug dissociation ratio (pH 7.4, phosphate buffer solution/acetonitrile (1:1), 36°C, day 4): 1.9%; drug dissociation ratio (pH 7.4, phosphate buffer solution/acetonitrile (1:1), 36°C, day 5): 2.3%; drug dissociation ratio (pH 7.4, phosphate buffer solution/acetonitrile (1:1), 36°C, day 6): 2.5%; drug dissociation ratio (pH 7.4, phosphate buffer solution/acetonitrile (1:1), 36°C, day 7): 2.9%; Dissociation ratio (%/day) (pH 8.0, borate buffer solution/acetonitrile (1:1), 36°C): 3.3 %/day; drug dissociation ratio (pH 8.0, borate buffer solution/acetonitrile (1:1), 36°C, day 0): 0.0%; drug dissociation ratio (pH 8.0, borate buffer solution/acetonitrile (1:1), 36°C, day 1): 4.6%; drug dissociation ratio (pH 8.0, borate buffer solution/acetonitrile (1:1), 36°C, day 2): 10.1%; drug dissociation ratio (pH 8.0, borate buffer solution/acetonitrile (1:1), 36°C, day 3): 14.1%; drug dissociation ratio (pH 8.0, borate buffer solution/acetonitrile (1:1), 36°C, day 4): 17.8%; drug dissociation ratio (pH 8.0, borate buffer solution/acetonitrile (1:1), 36°C, day 5): 18.9%; drug dissociation ratio (pH 8.0, borate buffer solution/acetonitrile (1:1), 36°C, day 6): 20.0%; drug dissociation ratio (pH 8.0, borate buffer solution/acetonitrile (1:1), 36°C, day 7): 22.8% |
| Chondroitin Sulfate Introduced with 11-β-Alanyl-Propionic Acid Fluticasone [Compound vii] | 0.1 %/day | 0.2 %/day | 0.0 | 0.3 | 0.6 | 0.7 | 0.7 | 1.0 | 1.0 | 1.1 | 0.0 | 0.0 | 0.0 | 0.2 | 0.4 | 0.4 | 0.4 | 0.4 |  |
| Chondroitin Sulfate Introduced with 21-β-Alanyl-Budesonide (10 kDa) [Compound vc] | 1.2 %/day | 2.0 %/day | 0.1 | 1.9 | 2.4 | 3.9 | 7.6 | 9.7 | 11.2 | 14.0 | 0.4 | 1.6 | 2.8 | 3.7 | 4.8 | 5.3 | 6.8 | 8.5 |  |
| Chondroitin Sulfate Introduced with 21-β-Alanyl-Budesonide (20 kDa) [Compound vb] | 0.9 %/day | 1.5 %/day | 0.2 | 1.2 | 1.7 | 2.9 | 5.5 | 7.6 | 8.9 | 10.8 | 0.3 | 1.2 | 2.4 | 3.0 | 3.6 | 4.0 | 5.1 | 6.4 |  |
| Chondroitin Sulfate Introduced with Seratrodast [Compound xxiii] | 0.1 %/day | 0.2 %/day | 0.0 | 0.2 | 0.4 | 0.6 | 0.7 | 0.9 | 1.1 | 1.3 | 0.0 | 0.0 | 0.2 | 0.3 | 0.3 | 0.4 | 0.5 | 0.6 |  |
| Chondroitin Sulfate Introduced with β-Alanyl-Proxyphylline [Compound xxiia] | 0.2 %/day | 0.4 %/day | 0.0 | 0.0 | 0.0 | 1.2 | 1.6 | 2.0 | 2.3 | 2.6 | 0.0 | 0.0 | 0.0 | 0.0 | 0.0 | 0.0 | 0.8 | 1.3 |  |
| Hyaluronic Acid Introduced with 21-β-Alanyl-Budesonide (390 kDa) [Compound vib] | 4.9 %/day | 7.9 %/day | 0.4 | 12.8 | 16.1 | 23.2 | 36.7 | 44.1 | 50.2 | 55.3 | 3.3 | 9.3 | 16.3 | 18.4 | 22.3 | 25.2 | 30.7 | 34.6 |  |
